Tests used:
HLA-A*24:02 = molecular target: T1, HLA-A*24:02 (human); assay: UV ligand exchange ELISA; exchange yield grade
T1 construct: Peptide-receptive MHC class I monomer made by UV cleavage of a UV-sensitive ligand
Summary of the method: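 Peptide-MHC complexes formed by UV-triggered exchange of a cleavable ligand for the test peptide. Exchange yield measured on streptavidin-coated plates by HRP anti-β2m ELISA (1 h, 37 °C; A450) on 100-fold diluted samples. Refolded HLA-A*02:01 monomers at 15-500 ng/ml served as standards.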

[1] = molecular target: T2, human recombinant HLA-B*08:01 with b2m (human); assay: pMHC stability assay at 37 C, mean half-life of b2m on heavy chain, grade (T1/2 >2 h = +; >4 h = ++; >6 h = +++; >10 h = ++++)
T2 construct: Peptide-receptive MHC class I used in the pMHC stability assay by ImmunAware; also called MHC heavy chain and b2m
Protocol: The peptide-MHC stability for HLA-B*08:01 peptides was performed by ImmunAware (Copenhagen, Denmark). The data were obtained using a proximity based, homogenous, real-time assay to measure the dissociation of peptides from HLA class I molecules. First human recombinant HLA-B*08:01 and b2m were expressed in E. coli and purified in a series of liquid chromatography based steps (Ferre et al., 2003; Ostergaard et al., 2001). Afterwards, the stability of a peptide-MHC complex (pMHC) can be determined by measuring the amount of b2m associated with the MHC heavy chain over time at 37° C. (Harndahl et al., 2012). The stability of each pMHC, expressed as the half life of b2m associated with the respective heavy chain, was calculated by fitting the data to a one-phase dissociation equation.

## LYQDRFDYL
HLA-A*24:02
  peptide exchange yield: > 75%

## EYNTIKDKF
HLA-A*24:02
  peptide exchange yield: 50 to 75%

## LYSDIGHLL
HLA-A*24:02
  peptide exchange yield: 50 to 75%

## RYLGKNWSF
HLA-A*24:02
  peptide exchange yield: > 75%

## TYVENLRLL
HLA-A*24:02
  peptide exchange yield: 50 to 75%

## TYPQLEGFKF
HLA-A*24:02
  peptide exchange yield: > 75%

## SYADNILSF
HLA-A*24:02
  peptide exchange yield: > 75%

## RFYLLTEHF
HLA-A*24:02
  peptide exchange yield: 50 to 75%

## RYLDEINLL
HLA-A*24:02
  peptide exchange yield: 50 to 75%

B1: peptide QAAQRTAL (SEQ ID NO: 107) (peptide)
peptide: QAAQRTAL
notes: synthetic peptide; also called AFF3 peptide
[1]
  mean half-life (T1/2) of peptide-MHC complex: 4 to 6 h

B2: peptide ILAIRQNAL (SEQ ID NO: 108) (peptide)
peptide: ILAIRQNAL
notes: synthetic peptide; also called AGPAT5 peptide
[1]
  mean half-life (T1/2) of peptide-MHC complex: 4 to 6 h

B3: peptide LGHVRYVL (SEQ ID NO: 109) (peptide)
peptide: LGHVRYVL
notes: as for B2
[1]
  mean half-life (T1/2) of peptide-MHC complex: 2 to 4 h

B4: peptide FGLARIYSF (SEQ ID NO: 110) (peptide)
peptide: FGLARIYSF
notes: synthetic peptide; also called CDK6 peptide
[1]
  mean half-life (T1/2) of peptide-MHC complex: 2 to 4 h

B5: peptide APLLRHWEL (SEQ ID NO: 112) (peptide)
peptide: APLLRHWEL
notes: synthetic peptide; also called HLA-DOA peptide
[1]
  mean half-life (T1/2) of peptide-MHC complex: 2 to 4 h

B6: peptide DANSRTSQL (SEQ ID NO: 113) (peptide)
peptide: DANSRTSQL
notes: synthetic peptide; also called MAP3K1 peptide
[1]
  mean half-life (T1/2) of peptide-MHC complex: 6 to 10 h

B7: peptide HNALRILTF (SEQ ID NO: 114) (peptide)
peptide: HNALRILTF
notes: synthetic peptide; also called NUP210 peptide
[1]
  mean half-life (T1/2) of peptide-MHC complex: 4 to 6 h

B8: peptide ELYQRIYAF (SEQ ID NO: 115) (peptide)
peptide: ELYQRIYAF
notes: synthetic peptide; also called PIK3R6 peptide
[1]
  mean half-life (T1/2) of peptide-MHC complex: 4 to 6 h

B9: peptide TLKIRAEVL (SEQ ID NO: 116) (peptide)
peptide: TLKIRAEVL
notes: synthetic peptide; also called RALGPS2 peptide
[1]
  mean half-life (T1/2) of peptide-MHC complex: 6 to 10 h

B10: peptide YIKTAKKL (SEQ ID NO: 117) (peptide)
peptide: YIKTAKKL
notes: as for B9
[1]
  mean half-life (T1/2) of peptide-MHC complex: 4 to 6 h

B11: peptide FEKEKKESL (SEQ ID NO: 118) (peptide)
peptide: FEKEKKESL
notes: synthetic peptide; also called SESN3 peptide
[1]
  mean half-life (T1/2) of peptide-MHC complex: 6 to 10 h

B12: peptide DLRTKEVVF (SEQ ID NO: 119) (peptide)
peptide: DLRTKEVVF
notes: synthetic peptide; also called SIPA1L3 peptide
[1]
  mean half-life (T1/2) of peptide-MHC complex: 4 to 6 h

B13: peptide VPPKKHLL (SEQ ID NO: 120) (peptide)
peptide: VPPKKHLL
notes: synthetic peptide; also called TRRAP peptide
[1]
  mean half-life (T1/2) of peptide-MHC complex: 2 to 4 h

B14: peptide RPKKVNTL (SEQ ID NO: 121) (peptide)
peptide: RPKKVNTL
notes: synthetic peptide; also called ZBTB24 peptide
[1]
  mean half-life (T1/2) of peptide-MHC complex: 2 to 4 h

## KYIEYYLVL
HLA-A*24:02
  peptide exchange yield: > 75%

## IFVARLYYF
HLA-A*24:02
  peptide exchange yield: > 75%

## KYSSGFRNI
HLA-A*24:02
  peptide exchange yield: 50 to 75%

## RFPPTPPLF
HLA-A*24:02
  peptide exchange yield: > 75%
